# Assay results as given in paper PMC6389893.
# B1: in vitro translated [35S]-TRIM33 (natural protein)
# chain: MAENKGGGEAESGGGGSGSAPVTAGAAGPAAQEAEPPLTAVLVEEEEEEGGRAGAEGGAAGPDDGGVAAASSGSAQAASSPAASVGTGVAGGAVSTPAPAPASAPAPGPSAGPPPGPPASLLDTCAVCQQSLQSRREAEPKLLPCLHSFCLRCLPEPERQLSVPIPGGSNGDIQQVGVIRCPVCRQECRQIDLVDNYFVKDTSEAPSSSDEKSEQVCTSCEDNASAVGFCVECGEWLCKTCIEAHQRVKFTKDHLIRKKEDVSESVGASGQRPVFCPVHKQEQLKLFCETCDRLTCRDCQLLEHKEHRYQFLEEAFQNQKGAIENLLAKLLEKKNYVHFAATQVQNRIKEVNETNKRVEQEIKVAIFTLINEINKKGKSLLQQLENVTKERQMKLLQQQNDITGLSRQVKHVMNFTNWAIASGSSTALLYSKRLITFQLRHILKARCDPVPAANGAIRFHCDPTFWAKNVVNLGNLVIESKPAPGYTPNVVVGQVPPGTNHISKTPGQINLAQLRLQHMQQQVYAQKHQQLQQMRMQQPPAPVPTTTTTTQQHPRQAAPQMLQQQPPRLISVQTMQRGNMNCGAFQAHQMRLAQNAARIPGIPRHSGPQYSMMQPHLQRQHSNPGHAGPFPVVSVHNTTINPTSPTTATMANANRGPTSPSVTAIELIPSVTNPENLPSLPDIPPIQLEDAGSSSLDNLLSRYISGSHLPPQPTSTMNPSPGPSALSPGSSGLSNSHTPVRPPSTSSTGSRGSCGSSGRTAEKTSLSFKSDQVKVKQEPGTEDEICSFSGGVKQEKTEDGRRSACMLSSPESSLTPPLSTNLHLESELDALASLENHVKIEPADMNESCKQSGLSSLVNGKSPIRSLMHRSARIGGDGNNKDDDPNEDWCAVCQNGGDLLCCEKCPKVFHLTCHVPTLLSFPSGDWICTFCRDIGKPEVEYDCDNLQHSKKGKTAQGLSPVDQRKCERLLLYLYCHELSIEFQEPVPASIPNYYKIIKKPMDLSTVKKKLQKKHSQHYQIPDDFVADVRLIFKNCERFNEMMKVVQVYADTQEINLKADSEVAQAGKAVALYFEDKLTEIYSDRTFAPLPEFEQEEDDGEVTEDSDEDFIQPRRKRLKSDERPVHIK
# modifications: [35S]-labeled
# How the values were obtained:
# Assay in all cases: pull-down; GST fusion proteins (2 µg) on agarose beads, nuclease-treated, with in vitro translated [35S]-TRIM33; NETN buffer (20 mM Tris HCl pH 7.5, 100 mM NaCl, 1 mM EDTA, 0.5% NP-40, 1 mM DTT) with 200 µg/ml ethidium bromide, 1 h at 4 °C; phosphoimaging, bound as percent of input
# [1] = molecular target: GST-IN C-terminal domain (HIV-1)
# [2] = molecular target: GST-IN N-terminal domain (HIV-1)
# [3] = molecular target: GST-IN catalytic core domain (HIV-1)
# [4] = molecular target: GST-IN full length (HIV-1)
binder,measurement,setting,value
B1,percent of radiolabeled input bound,[1],> 8.5%
same,percent of radiolabeled input bound,[2],< 3%
same,percent of radiolabeled input bound,[3],< 3%
same,percent of radiolabeled input bound,[4],> 8.5%
